Laboratory results published in the supplement of paper PMC6379048.

How the values were obtained:
Assay in all cases: EC50 of free RNA motif oligo competing protein binding to immobilised probe
[1] = target: CPSF4 (UniProt O95639)
Summary of the method: (§1)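 Free RNA oligos (0 nM to 30 μM) competed for 1 h at 4°C in HEK293-FT lysate (2.5 mg protein/well) before a 30 min, 4°C pulldown with the same oligos on NHS-Sepharose beads. Bound proteins were quantified by label-free LC-MS/MS and normalised to the control. Kd was found by multiplying EC50, from a four-parameter log-logistic fit, by a protein-dependent depletion factor.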

[2] = target: U2AF2 (UniProt P26368)
U2AF2, sequence (P26368 whole entry): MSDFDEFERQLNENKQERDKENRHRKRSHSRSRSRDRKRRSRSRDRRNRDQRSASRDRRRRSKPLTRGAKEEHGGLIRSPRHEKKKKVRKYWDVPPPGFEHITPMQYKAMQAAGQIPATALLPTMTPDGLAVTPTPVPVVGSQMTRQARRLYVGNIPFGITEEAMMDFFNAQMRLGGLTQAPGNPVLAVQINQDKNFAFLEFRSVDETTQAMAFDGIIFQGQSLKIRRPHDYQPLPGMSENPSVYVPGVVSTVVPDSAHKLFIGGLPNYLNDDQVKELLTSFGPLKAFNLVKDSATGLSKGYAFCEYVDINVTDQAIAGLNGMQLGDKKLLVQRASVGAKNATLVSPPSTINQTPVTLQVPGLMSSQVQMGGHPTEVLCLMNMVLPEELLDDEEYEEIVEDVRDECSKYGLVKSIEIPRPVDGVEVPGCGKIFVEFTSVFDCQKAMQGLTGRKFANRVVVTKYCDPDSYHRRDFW
Summary of the method: as §1

[3] = target: T1, MKRN2 (UniProt Q9H000)
T1 sequence: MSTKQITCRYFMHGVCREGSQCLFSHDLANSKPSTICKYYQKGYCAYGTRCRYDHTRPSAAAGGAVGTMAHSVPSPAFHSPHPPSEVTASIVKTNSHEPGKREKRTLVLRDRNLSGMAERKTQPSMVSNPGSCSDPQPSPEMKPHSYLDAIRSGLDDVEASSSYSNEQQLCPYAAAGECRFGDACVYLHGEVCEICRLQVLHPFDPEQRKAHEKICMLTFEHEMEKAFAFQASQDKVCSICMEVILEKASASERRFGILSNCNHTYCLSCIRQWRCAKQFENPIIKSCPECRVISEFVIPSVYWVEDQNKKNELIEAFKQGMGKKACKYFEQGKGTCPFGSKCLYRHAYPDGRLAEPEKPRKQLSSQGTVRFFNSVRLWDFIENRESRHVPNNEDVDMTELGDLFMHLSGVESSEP
Summary of the method: as §1

[4] = target: MRPL49 (UniProt Q13405)
Summary of the method: as §1

[5] = target: MRPL48 (UniProt Q96GC5)
Summary of the method: as §1

[6] = target: MRPS18A (UniProt Q9NVS2)
Summary of the method: as §1

[7] = target: PPIE (UniProt Q9UNP9)
PPIE, sequence (Q9UNP9 whole entry): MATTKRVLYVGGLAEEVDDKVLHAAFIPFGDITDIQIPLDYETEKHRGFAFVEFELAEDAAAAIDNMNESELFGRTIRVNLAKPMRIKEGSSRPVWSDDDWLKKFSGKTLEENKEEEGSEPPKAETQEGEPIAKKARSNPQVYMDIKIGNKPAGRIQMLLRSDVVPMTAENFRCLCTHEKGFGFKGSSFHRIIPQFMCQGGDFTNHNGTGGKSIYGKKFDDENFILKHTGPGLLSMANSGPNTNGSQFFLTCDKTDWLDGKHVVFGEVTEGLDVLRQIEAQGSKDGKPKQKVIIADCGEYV
Summary of the method: as §1

[8] = target: T2, PRPF31 (UniProt Q8WWY3)
T2 sequence: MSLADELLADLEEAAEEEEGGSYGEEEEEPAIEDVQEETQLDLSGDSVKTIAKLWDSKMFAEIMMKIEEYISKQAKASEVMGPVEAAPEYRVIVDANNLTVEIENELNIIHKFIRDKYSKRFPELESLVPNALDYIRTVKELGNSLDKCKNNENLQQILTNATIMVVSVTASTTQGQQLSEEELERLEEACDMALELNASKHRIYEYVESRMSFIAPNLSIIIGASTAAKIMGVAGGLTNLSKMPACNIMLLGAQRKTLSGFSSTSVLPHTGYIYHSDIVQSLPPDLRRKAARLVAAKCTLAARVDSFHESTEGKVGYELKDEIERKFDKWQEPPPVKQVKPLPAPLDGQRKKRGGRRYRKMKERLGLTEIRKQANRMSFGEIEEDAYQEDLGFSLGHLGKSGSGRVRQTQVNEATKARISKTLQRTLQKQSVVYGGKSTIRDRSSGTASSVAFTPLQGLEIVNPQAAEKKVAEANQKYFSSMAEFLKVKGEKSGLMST
Summary of the method: as §1

[9] = target: T3, TRIM56 (UniProt Q9BRZ2)
T3 sequence: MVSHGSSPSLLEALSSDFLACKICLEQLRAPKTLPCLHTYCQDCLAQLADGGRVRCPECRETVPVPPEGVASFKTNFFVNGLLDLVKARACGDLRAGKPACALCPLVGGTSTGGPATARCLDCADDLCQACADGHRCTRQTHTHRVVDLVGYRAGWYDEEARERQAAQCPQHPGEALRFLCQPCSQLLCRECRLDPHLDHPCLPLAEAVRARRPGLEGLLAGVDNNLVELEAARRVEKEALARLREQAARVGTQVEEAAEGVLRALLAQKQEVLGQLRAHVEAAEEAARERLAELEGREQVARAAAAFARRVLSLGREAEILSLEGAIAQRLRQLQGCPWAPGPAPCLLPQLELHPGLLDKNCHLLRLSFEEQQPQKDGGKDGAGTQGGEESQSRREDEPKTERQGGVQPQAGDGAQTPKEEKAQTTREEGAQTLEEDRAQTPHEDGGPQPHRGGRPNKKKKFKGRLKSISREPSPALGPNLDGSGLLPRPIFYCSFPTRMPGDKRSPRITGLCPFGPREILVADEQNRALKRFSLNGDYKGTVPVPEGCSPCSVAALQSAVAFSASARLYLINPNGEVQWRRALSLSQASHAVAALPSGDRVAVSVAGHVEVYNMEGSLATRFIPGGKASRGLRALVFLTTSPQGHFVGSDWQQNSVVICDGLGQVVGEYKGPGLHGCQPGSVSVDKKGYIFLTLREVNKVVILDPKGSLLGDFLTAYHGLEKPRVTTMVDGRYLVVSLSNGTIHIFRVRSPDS
Summary of the method: as §1

[10] = target: T4, ZFP36L1 (UniProt Q07352)
T4 sequence: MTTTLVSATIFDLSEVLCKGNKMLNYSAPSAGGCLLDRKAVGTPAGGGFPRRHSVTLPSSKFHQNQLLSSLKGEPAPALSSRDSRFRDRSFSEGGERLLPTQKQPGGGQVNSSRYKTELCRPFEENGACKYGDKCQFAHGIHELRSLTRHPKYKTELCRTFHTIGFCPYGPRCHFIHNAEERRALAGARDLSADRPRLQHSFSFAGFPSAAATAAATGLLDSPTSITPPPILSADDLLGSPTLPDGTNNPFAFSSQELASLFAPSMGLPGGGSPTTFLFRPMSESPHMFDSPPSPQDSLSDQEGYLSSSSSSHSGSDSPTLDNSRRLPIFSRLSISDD
Summary of the method: as §1

[11] = target: ZNFX1 (UniProt Q9P2E3)
ZNFX1, sequence (Q9P2E3 whole entry): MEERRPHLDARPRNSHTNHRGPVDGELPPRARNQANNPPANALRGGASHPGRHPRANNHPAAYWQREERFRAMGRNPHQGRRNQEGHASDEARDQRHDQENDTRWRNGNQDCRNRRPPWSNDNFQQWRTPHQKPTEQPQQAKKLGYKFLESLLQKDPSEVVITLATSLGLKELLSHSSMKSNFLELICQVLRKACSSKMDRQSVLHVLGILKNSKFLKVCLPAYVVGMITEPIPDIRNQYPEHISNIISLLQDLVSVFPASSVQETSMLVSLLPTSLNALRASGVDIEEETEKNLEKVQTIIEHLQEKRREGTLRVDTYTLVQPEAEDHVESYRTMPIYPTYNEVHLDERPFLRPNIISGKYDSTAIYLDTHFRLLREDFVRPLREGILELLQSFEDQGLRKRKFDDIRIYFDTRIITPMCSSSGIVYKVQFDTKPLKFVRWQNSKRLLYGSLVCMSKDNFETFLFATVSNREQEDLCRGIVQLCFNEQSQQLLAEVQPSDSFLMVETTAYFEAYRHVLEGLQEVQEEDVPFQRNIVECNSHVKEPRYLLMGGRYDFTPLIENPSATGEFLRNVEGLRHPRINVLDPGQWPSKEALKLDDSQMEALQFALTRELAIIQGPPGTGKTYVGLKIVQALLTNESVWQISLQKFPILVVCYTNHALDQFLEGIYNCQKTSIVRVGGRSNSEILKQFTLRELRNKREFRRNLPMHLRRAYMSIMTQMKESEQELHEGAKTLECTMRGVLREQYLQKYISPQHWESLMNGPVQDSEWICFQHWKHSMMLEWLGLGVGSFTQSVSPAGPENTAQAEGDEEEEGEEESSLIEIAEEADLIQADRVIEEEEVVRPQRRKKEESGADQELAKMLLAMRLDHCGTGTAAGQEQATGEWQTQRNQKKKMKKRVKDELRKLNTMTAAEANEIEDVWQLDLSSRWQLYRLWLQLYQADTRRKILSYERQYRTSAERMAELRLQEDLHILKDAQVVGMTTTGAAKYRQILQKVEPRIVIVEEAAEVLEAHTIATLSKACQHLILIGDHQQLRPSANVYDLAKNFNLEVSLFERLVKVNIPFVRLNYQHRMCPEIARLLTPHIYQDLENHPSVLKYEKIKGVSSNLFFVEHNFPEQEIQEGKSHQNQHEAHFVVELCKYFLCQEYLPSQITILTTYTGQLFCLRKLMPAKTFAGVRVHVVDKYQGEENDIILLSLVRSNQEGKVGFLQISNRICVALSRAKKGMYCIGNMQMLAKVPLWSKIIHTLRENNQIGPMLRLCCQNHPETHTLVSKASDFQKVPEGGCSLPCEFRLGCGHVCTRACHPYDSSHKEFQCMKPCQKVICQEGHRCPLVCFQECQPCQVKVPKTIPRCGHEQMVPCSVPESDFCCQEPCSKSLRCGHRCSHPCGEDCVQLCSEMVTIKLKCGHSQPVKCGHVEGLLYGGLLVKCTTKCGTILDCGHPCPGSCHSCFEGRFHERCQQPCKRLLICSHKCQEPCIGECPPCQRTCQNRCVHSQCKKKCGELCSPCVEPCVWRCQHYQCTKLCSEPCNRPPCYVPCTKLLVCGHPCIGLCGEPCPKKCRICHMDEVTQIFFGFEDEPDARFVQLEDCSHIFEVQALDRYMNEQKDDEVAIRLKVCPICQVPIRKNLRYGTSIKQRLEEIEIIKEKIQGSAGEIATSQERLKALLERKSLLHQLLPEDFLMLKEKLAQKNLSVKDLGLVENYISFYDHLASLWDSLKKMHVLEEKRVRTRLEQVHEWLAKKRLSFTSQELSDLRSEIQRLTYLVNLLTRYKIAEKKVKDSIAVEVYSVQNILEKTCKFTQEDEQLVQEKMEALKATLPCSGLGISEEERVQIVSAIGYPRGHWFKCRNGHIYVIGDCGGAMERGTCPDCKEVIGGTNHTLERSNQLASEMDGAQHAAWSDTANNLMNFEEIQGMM
Summary of the method: as §1

CPSF4, sequence (O95639 whole entry): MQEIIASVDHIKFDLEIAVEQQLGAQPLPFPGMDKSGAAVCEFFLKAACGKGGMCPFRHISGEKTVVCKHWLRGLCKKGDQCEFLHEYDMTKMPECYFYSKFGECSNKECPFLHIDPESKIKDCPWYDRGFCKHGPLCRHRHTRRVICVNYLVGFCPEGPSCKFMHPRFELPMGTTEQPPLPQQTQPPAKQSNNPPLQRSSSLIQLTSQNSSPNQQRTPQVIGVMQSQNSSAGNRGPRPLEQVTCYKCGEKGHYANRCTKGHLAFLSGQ

What does the source list for AAUAAA?
EC50 [1]: 0.0555 µM; EC50 [2]: 1.01 µM; EC50 [3]: 3.55 µM

With CUGUCCU as the sequence, how does the EC50 [4] read?
Its EC50 is 0.109 µM.

And the EC50 [5]?
The EC50 was 0.177 µM.

And the EC50 [6]?
Its EC50 is 0.102 µM.

How did the EC50 [7] turn out when UAUUUAU was run?
Its EC50 is 0.3 µM.

And the EC50 [8]?
Its EC50 is 5.84 µM.

What about the EC50 [9] of the same sequence?
Its EC50 is 3.45 µM.

And the EC50 [10]?
Its EC50 is 0.0739 µM.

And the EC50 [11]?
The EC50 was 0.436 µM.
